Measured values published in patent publication US20260234738A1 (Regeneron, published 2026).
Positions count from the first letter of the chain named.

B1: mAb10955 (antibody, V domains shown)
VH: EVQLVESGGGLVQPGGSLRVSCAASGFTVSRNYMSWVRQAPGKGLEWVSVIYSGGSTFYADSVKGRFTISRDNSKNTLYLQMNSLRAEDTAIYYCARYIPRFDPWGQGTLVTVSS
VL: DIQMTQSPSSLSASVGDRVTITCQASQDISNYLNWFQQKPGRAPKLLIYDASNLETGVPSRFSGSGSGTDFTFTISSLQPEDIATYYCQQYDNLPITFGQGTRLEIKR
B2: mAb10956 (antibody, V domains shown)
VH: EVQLVESGGGLVQPGGSLRLSCAASGLTVSSNYMSWVRQAPGKGLEWVSVIYSGGSTFYADSVKGRFTISRDNSKNTLYLQMNSLRAEDTAVYYCARDLIKYGMDVWGQGTTVTVSS
VL: not shown
B3: mAb10957 (antibody, V domains shown)
VH: B2 VH with L27V, Y79F, A87I, I100G, K101P
VL: DIQLTQSPSFLSASVGDRVTITCRASQGISSYLAWYQQKPGKAPKLLIYAASTLQSGVPSRFSGSGSGTQFILTISSLQPEDFATYYCQQLNSYPGFTFGPGTKVDIKR

Biological target: SARS-COV-2 RBD extracellular domain expressed with a C-terminal mouse IgG2a (SARS-CoV-2)

Binder	Kd [pM]	t½ [h]
B1	59.2	8.23
B2	395	1.3
B3	≤ 27.9	≥ 19.2
